Assay [1] has as its target Peptide 3 ([…]) (Human cytomegalovirus, UniProt P69332). As to the kind of experiment: HuProt Human Proteome Microarray, control peptide. The format is binding, HCMV. An excerpt: The HuProt™ Human Proteome Microarray provides the largest number of unique, full-length, individually purified human proteins on a single microscope slide. It provides >21,000 unique human proteins, isoform variants, and protein fragments—covering 16,794 unique genes. This includes 15,889 of the 19,613 canonical human proteins described in the Human Protein Atlas, with broad coverage across protein subclasses. This allows thousands of interactions to be profiled in a high-throughput manner. The full-length recombinant proteins are expressed in the yeast S. cerevisiae, purified, and printed on glass slides in duplicate along with a set of control proteins (GST, BSA, histones, IgG, etc.). The full list of the different proteins included in the HuProt™ Human Proteome Microarray as used in this Example is provided as “List B” in the Research Disclosures publication (ISSN 0374-4353, Questel Ireland Ltd) with database numbers 707018, 707019 and 707020, each entitled “Large scale protein arrange target protein identities” and each digitally published on 27 Jan. 2023, the contents of each of which are incorporated herein by reference in their entirety, fo the purposes of the disclosure of the proteins defined by “List B”. “List B” begins in Research Disclosures publication 707018, is continued in Research Disclosures publication 707019, and concludes Research Disclosures publications 707020, and so the three publications are to be read consecutively as a single disclosure of the “List B” proteins. The HuProt™ microarray is not restricted to a particular type of surface coating, although the default is glass coated with ultrathin nitrocellulose film for the non-covalent, yet irreversible, capture of active proteins to the surface.
Samples of humanised 7B1F3 and mouse 7B1F3 antibodies were analysed for binding specificities on HuProt™ human proteome arrays. A peptide with the sequence TDVLNQSKPVTL (“Peptide 3”) was added to the arrays at 0.1 mg/ml as a control.
After blocking, the arrays were probed with the antibody samples (0.1 μg/ml) at room temperature for 1 hour. Then the arrays were washed with TBST for 10 min×3 and probed with Alexa647-anti-human IgG Fc or Alexa647-anti-mouse IgG secondary antibodies under conditions optimized by CDI Labs for signal detection.
• Non-specific hits that directly bind to the secondary antibodies were eliminated from the analysis of the samples. • CDI software was used to quantify the specificity of each individual sample to specific proteins on the array based on Z Scores. • Z score is the average Z score of the duplicate spots of a given protein (each protein is printed in duplicate on a HuProt™ array). The Z score of each spot on a given array is calculated according to the algorithm below:
Z=[F635−F635(avg)]/F635(std) • F635(avg) and F635(std) are the average and standard deviation of the F635 values of all spots on the array, respectively. • S score is the difference of the Z Scores of a given protein and the one ranked next to it. If the S score of the top hit is >3, the antibody is considered to be highly specific for the top hit. • F635 is the average foreground signal intensity of 2 replicate spots of a given protein in the detection channel (635 nm). • B635 is the average background signal intensity of 2 replicate spots of a given protein in the detection channel (635 nm).

The subject of assay [2] is human heart muscle tissue. As to the kind of experiment: Immunohistochemistry (IHC) on human cardiac tissues. As to conditions: FIG. 19 B. On the procedure:
Cytomegalovirus (CMV) control slides containing CMV positive lung tissue and CMV negative myometrium (product number #3240A) were obtained from Newcomer Supply Inc., Middleton, WI 53562-2579, USA. Tissue micro-arrays (TMAs) were obtained from US Biomax Inc., Derwood, MD 20855, USA, and included tumor tissues #BR1008b, #BS17016c, #BCN721b and normal tissues #FDA662a and heart tissues #HEN241a.
The paraffin sections were sequentially immersed into a. 100% xylene three times (5 min each); b. 100% ethanol twice (2 min each); c. 95% ethanol twice (2 min each). The slides were rinsed twice in water for 5 min to remove ethanol. […], the slides were immersed in 3% H2O2 for 5 minutes and washed thereafter twice (2×) with distilled water. The slides were then immersed in the working citrate buffer (pH 6.0) and covered with a lid. The buffer was heated in the microwave until it had boiled, and then kept in the steamer for 15 min.
The sections were cooled at room temperature for 30 min and washed with PBS. 5% BSA blocking solution was then added to the HIER treated samples and they were incubated at 37° C. for 30 min. […] Digitized pictures were taken by Olympus VS120 scanner and analyzed by using OlyVia 3.2 software (Olympus Corporation, 20101 Tokyo, Japan) by senior Pathologist. […]

Setting [3] is: Table 9, top hit Peptide 3, antibody 0.1 μg/ml.

B1: 7B1F3: mouse IgG1 kappa antibody against US28 ECD1 Peptide-N; VH SEQ ID NO: 211, VL SEQ ID NO: 213 (antibody, V domains shown)
VH: EVQLQQSGAELAKPGASVKMSCKASGYTFTNYWMHWVKQRPGQGLEWIGYVNPRTGYTEYNQKFKDKATLTADKSSRTAYMQLSSLTSEDSAVYSCARILNGTGFAYWGQGTLVTVSA
VL: DIVLTQSPSSLTVSVGEKFTMSCKSSQSLLYSSNQKNYLAWYQQKPGQSPKLLIYWASTRESGVPDRFTGSGSGTDFTLAISSVKPEDLAIYYCQQYYSFPLTFGAGTKLEIK
modifications: Mature form of VH sequence of 7B1F3, without the leader sequence; Mature form of VL sequence of 7B1F3, without the leader sequence
With B1, in assay [1] (Protein: Peptide 3), the “S Score” value came to 116.095 and the “Z Score” value is recorded as 145.092. The molecule further displayed an F635 in assay [1] (Protein: Peptide 3, antibody 0.1 μg/ml) of 49972. In assay [1] (Table 9, antibody 0.1 μg/ml), the “Peptide 3 Signal” value was 49972 and the “Top Hit” value is recorded as “Peptide 3”. In assay [1] (setting [3]), the “S Score” value was determined as 116.095 and the “Z Score” value is given as 145.092. Further, the Signal in assay [1] (Table 9, top hit, 65535 is the saturation signal intensity) is 49972.

B2: 13-5G6-1D3: mouse monoclonal IgG1 kappa antibody against US28 ECD3; VH SEQ ID NO: 12, VL SEQ ID NO: 18 (antibody, V domains shown)
VH: EVKLVESGGGLVQPGGSLRLACATSGFTFTDYYMSWVRQPPGKALEWLGFIRSKANGYTTEYSASVKGRFTISRDNSQSILYLQMNTLRSEDSATYYCARDERRTAWLAYWGQGTLVTVSA
VL: DVLMTQTPLSLPVSLGDQASISCRSSQSIVHSNGNTYLDWYLQKPGQSPKLLIYKVSNRFSGVPDRFSGSGSGTDFTLKISRVEAEDLGVYYCFQGSHVPTWTFGGGTKLEIK
modifications: Mature form of VH sequence of 1D3, without the leader sequence; Mature form of VL sequence of 1D3, without the leader sequence
On to B2, for which the “off-target binding in IHC” value in assay [2] is recorded as “did not show any general off-target binding”.

These data come from patent US20250296984A1, “THERAPEUTIC AND DIAGNOSTIC AGENTS AND USES THEREOF” (priority 2022, published 2025).
